Results: US12460006B2, “Antibodies against integrin alpha 11 beta 1” (Momenta Pharmaceuticals, Inc., priority 2019, dated 2025)

What was measured:
I domain of α11β1 = target: T1, I domain of α11β1 (Homo sapiens, UniProt Q9UKX5); assay: ELISA binding to in-house generated I domain of α11β1; conditions: Yes/No
T1 construct: An in-house generated I domain of α11β1 was used; made in house
T1 sequence (Q9UKX5 164-345 limits assumed): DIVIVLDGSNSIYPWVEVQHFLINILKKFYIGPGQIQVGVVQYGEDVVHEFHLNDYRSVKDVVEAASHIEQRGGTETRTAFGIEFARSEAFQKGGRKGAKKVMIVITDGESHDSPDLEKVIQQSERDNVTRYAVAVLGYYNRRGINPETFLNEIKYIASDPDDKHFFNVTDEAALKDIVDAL
Method in brief: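 Plate-coated antigen (0.25 μg/mL, overnight 4° C) probed with antibody dilution series 1 h at room temperature, then biotinylated anti-IgG and streptavidin-HRP, 1 h each. TMB substrate 5 min, stopped, absorbance at 450 nm; in-house I domain of α11β1 used as target.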

α1β1, α2β1 and/or α10β1 = assay: Counter-screen for cross-reactivity to other collagen receptors; type: binding, human; conditions: cross-reactivity to α1β1, α2β1, α10β1
Method in brief: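 Cross-reactivity was checked by ELISA counter-screen on human α1β1, α2β1 and α10β1. Tested material was hybridoma clones from rats or mice immunized with α11β1, previously selected for binding to soluble human and mouse α11β1.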

[1] = system: CHO-K1 cells expressing human α11; assay: Cell adhesion inhibition (xCelligence), type I collagen; type: cell-based; conditions: Yes/No
Method in brief: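 CHO-K1 cells expressing human α11 (0.6×10^6 cells/mL) were preincubated with mAbs across a concentration range for 20 min at 37° C, then seeded on wells coated with 100 ng/mL type I collagen and blocked with 3% BSA. Impedance-based adhesion was recorded over 6 h, and maximum adhesion was compared with untreated control.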

human α11β1 = human α11β1 (Homo sapiens, UniProt Q9UKX5); assay: ELISA binding to recombinant human α11β1; conditions: binding Yes/No
Sequence of human α11β1 (Q9UKX5 23-1141 limits assumed): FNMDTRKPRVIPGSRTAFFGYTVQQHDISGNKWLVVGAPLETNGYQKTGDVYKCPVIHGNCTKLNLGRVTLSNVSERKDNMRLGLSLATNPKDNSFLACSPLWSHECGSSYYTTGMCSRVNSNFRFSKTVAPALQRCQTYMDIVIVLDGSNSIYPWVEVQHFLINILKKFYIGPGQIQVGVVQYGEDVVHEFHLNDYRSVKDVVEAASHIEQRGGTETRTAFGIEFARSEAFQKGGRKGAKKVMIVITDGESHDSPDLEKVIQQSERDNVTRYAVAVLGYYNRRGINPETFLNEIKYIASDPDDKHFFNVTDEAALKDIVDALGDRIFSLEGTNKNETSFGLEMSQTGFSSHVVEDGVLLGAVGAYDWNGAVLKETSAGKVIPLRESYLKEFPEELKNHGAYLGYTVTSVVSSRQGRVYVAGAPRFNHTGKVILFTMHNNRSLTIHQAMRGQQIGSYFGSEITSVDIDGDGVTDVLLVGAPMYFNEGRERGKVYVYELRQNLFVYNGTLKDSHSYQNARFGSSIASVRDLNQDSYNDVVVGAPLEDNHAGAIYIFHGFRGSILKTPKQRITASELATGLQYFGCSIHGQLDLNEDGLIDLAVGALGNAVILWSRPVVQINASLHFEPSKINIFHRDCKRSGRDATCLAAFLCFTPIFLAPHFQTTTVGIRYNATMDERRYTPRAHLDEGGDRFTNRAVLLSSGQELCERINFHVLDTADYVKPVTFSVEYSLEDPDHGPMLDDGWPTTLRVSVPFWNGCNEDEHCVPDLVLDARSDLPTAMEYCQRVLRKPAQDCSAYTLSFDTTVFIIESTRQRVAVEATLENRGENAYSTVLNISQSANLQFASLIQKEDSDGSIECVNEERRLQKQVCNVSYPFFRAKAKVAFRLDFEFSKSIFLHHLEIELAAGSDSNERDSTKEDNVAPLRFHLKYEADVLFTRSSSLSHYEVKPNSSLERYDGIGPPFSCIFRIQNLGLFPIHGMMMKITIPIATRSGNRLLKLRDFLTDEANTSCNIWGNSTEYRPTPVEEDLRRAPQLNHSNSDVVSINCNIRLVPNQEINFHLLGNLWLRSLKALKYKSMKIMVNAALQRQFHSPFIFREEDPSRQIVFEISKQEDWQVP
Sequence of human α11β1 (P05556 21-728 partner limits assumed): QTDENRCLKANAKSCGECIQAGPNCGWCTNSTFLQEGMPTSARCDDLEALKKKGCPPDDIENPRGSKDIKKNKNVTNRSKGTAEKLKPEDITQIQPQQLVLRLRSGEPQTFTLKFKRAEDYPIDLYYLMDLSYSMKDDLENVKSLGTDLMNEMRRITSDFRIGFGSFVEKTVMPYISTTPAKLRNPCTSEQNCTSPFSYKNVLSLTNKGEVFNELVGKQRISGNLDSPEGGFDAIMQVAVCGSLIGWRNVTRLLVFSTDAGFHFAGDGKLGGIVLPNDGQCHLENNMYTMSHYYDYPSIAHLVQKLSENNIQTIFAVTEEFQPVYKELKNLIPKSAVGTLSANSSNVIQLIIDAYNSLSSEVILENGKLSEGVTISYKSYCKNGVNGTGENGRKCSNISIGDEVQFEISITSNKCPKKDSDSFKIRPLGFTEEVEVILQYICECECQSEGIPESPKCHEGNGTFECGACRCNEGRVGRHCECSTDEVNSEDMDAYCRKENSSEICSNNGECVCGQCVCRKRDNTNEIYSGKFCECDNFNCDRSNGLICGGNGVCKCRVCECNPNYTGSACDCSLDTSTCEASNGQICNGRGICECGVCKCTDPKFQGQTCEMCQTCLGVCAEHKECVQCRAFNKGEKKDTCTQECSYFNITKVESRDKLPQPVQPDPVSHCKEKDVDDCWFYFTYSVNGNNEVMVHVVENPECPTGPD
Method in brief: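 Plate coat: 0.25 μg/mL α11β1 (human or mouse), o/n 4° C. Block PBS/2% BSA/0.05% Tween-20 1 h RT; antibody dilution series 1 h RT. Biotin anti-IgG 1 h, SA-HRP 1 h, TMB 5 min, stop, A450.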

[2] = system: human pulmonary fibroblasts (HPFs); assay: FACS antibody binding to human pulmonary fibroblasts; conditions: binding Yes/No
myofibroblasts (MF) = assay: FACS antibody binding to myofibroblasts; set-up: species or system human; conditions: binding Yes/No
Method in brief: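 Human pulmonary fibroblasts, serum-starved 24 h then TGFβ-1-treated 72 h to give myofibroblasts, were blocked with heat-inactivated FBS and stained with anti-α11 antibodies, then PE secondary, 30 min each at 4 °C, before 1% PFA fixation. Binding read by flow cytometry as PE geometric MFI of single cells.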

Row | Molecule | I Domain binding (I domain of α11β1) | Off Target (α1β1, α2β1 and/or α10β1) | Inhibition of CHO-K1 adhesion to collagen [1] | Human α11β1 ELISA (human α11β1) | HPF FACS [2] | MF FACS (myofibroblasts (MF))
1 | 6G4: rabbit anti-α11β1 mAb; heavy chain SEQ ID NO: 181, light chain SEQ ID NO: 182 (antibody) heavy: METGLRWLLLVAVLKGVQCQQQLEESGGGLVKPGGTLTLTCKASGVALNPYYYMCWVRQAPGKGLEWIACVDADSSGSTYYASWAKGRFTISKTSSTTVTLKMTSLTAADTATYFCARESVDYSSVGIGYVHGTDGLWGPGTLVTVSSGQPKAPSVFPLAPCCGDTPSSTVTLGCLVKGYLPEPVTVTWNSGTLTNGVRTFPSVRQSSGLYSLSSVVSVTSSSQPVTCNVAHPATNTKVDKTVAPSTCSKPMCPPPELPGGPSVFIFPPKPKDTLMISRTPEVTCVVVDVSQDDPEVQFTWYINNEQVRTARPPLREQQFNSTIRVVSTLPIAHQDWLRGKEFKCKVHNKALPAPIEKTISKARGQPLEPKVYTMGPPREELSSRSVSLTCMINGFYPSDISVEWEKNGKAEDNYKTTPTVLDSDGSYFLYSKLSVPTSEWQRGDVFTCSVMHEALHNHYTQKSISRSPGK light: MDTRAPTQLLGLLLLWLPGARCADIVVTQTPSSVSAAVGGTVTIKCQASQSISNYFSWYQQKPGQPPKLLIYRASTLASGVPSRFKGSGSGTEFTLTISDLECADAATYYCQCTYGRSNSNFFYGFGGGTEVVVKGDPVAPTVLIFPPAADQVATGTVTIVCVANKYFPDVTVTWEVDGTTQTTGIENSKTPQNSADCTYNLSSTLTLTSTQYNSHKEYTCKVTQGTTSVVQSFNRGDC | No | No | Yes | Yes | No | Yes
2 | 7-H14: mouse anti-α11β1 mAb; VH SEQ ID NO: 121, VL SEQ ID NO: 122 (antibody, V domains shown) VH: QVQLQQPGAELVRPGASVKLSCKPSGYTFTSYWMNWVKQRPGQGLEWIGMIDPSDSETHYNQMFKDKATLTVDKSSNTAYMQLSSLTSEDSAVYYCAQIYYAYDKAYWGQGTLVTVSA VL: DIVMSQSPSSLAVSVGEKVTMSCKSSQSLLYSSHQKNYLAWYQQKPGQSPKLLIYWASTRESGVPDRFTGSGSGTDFSLTISSVKAEDLAVYYCQEYYSWTFGGGTKLEIK | No | No | No | Yes | No | Yes
3 | 7D8B10: rat anti-α11β1 mAb; VH SEQ ID NO: 153, VL SEQ ID NO: 154 (antibody, V domains shown) VH: MDLRLTYVFIVAILKGVLCEVKLEESGGGLVQPGMSVKLSCATSGFIFSDYWMEWVRQAPGKGLEWVAEIRNKANNYATYYGKSMKGRFTISRDDSKSIVYLQVNSIRSEDTAIYYCAPNFDYWGQGVMVTVSS VL: MSPVQSLFLLLLWILGTHGDVVLTQTPPTLSATIGQSVSISCRSSQSLLHSTGNTYLNWLLQRPGQPPQLLIYLVSRLESGVPNRFSASGSGTDFTLKISGIEAEDLGVYYCVQSSHTPYTFGTGTKLELK | No | No | No | Yes | No | Yes
4 | 4E1: rabbit anti-α11β1 mAb; heavy chain SEQ ID NO: 195, light chain SEQ ID NO: 196 (antibody) heavy: METGLRWLLLVAVLKGVQCQSLEESGGDLVKPGTSLTLSCTASGFSFGSYYYMCWVRQAPGKGLEWIACIDVGSSGDTYYASWVNGRFTISKTSSTTVTLQMTSLTAADTATYFCARDDTAAGGFGNLELWGPGTLVTVSSGQPKAPSVFPLAPCCGDTPSSTVTLGCLVKGYLPEPVTVTWNSGTLTNGVRTFPSVRQSSGLYSLSSVVSVTSSSQPVTCNVAHPATNTKVDKTVAPSTCSKPMCPPPELPGGPSVFIFPPKPKDTLMISRTPEVTCVVVDVSQDDPEVQFTWYINNEQVRTARPPLREQQFNSTIRVVSTLPIAHQDWLRGKEFKCKVHNKALPAPIEKTISKARGQPLEPKVYTMGPPREELSSRSVSLTCMINGFYPSDISVEWEKNGKAEDNYKTTPTVLDSDGSYFLYSKLSVPTSEWQRGDVFTCSVMHEALHNHYTQKSISRSPGK light: MDTRAPTQLLGLLLLWLPGARCAFELTQTPSSVSEPVGGTVTIKCQASQSIYSYFSWYQQKPGQPPKRLIYQASTLASGVPSRFKGSGSGTDFTLTISDLECADAATYYCQNNYGRGSGSYFFGFGGGTEVVVKGDPVAPTVLIFPPAADQVATGTVTIVCVANKYFPDVTVTWEVDGTTQTTGIENSKTPQNSADCTYNLSSTLTLTSTQYNSHKEYTCKVTQGTTSVVQSFNRGDC | No | No | Yes | Yes | No | Yes
5 | 9-B11: mouse anti-α11β1 mAb; VH SEQ ID NO: 115, VL SEQ ID NO: 116 (antibody, V domains shown) VH: QVQLQQPGAELVRPGTSVKLSCKASGYTFTSYWMHWVQQRPGQGLEWIGVIDPSDSYTNYNQKFKGKATLTVDTSSSSAYMQLSSLTSEDSAVYYCARDDVAMDYWGQGTSVTVSS VL: DIVVTQSPASLAVSLGQRATISCRASESVDSYGNSFIHWYQQKPGQPPKLLIYRASNLKSGIPARFSGSGSRTDFTLTINPVEADDVATYYCQQSNEDPYTFGGGTKLEIK | Yes | No | Yes | Yes | No | Yes
6 | 6C7: rabbit anti-α11β1 mAb; heavy chain SEQ ID NO: 185, light chain SEQ ID NO: 186 (antibody) heavy: METGLRWLLLVAVLKGVQCQQQLEESGGGLVKPGGTLTLTCKASGIDFSSYYYMCWVRQAPGKGLELIVCIYTSSGGTWYASWVNGRLTISRSTSLNTVDLKMTSLTAADTATYFCARGVYSGSSDYPTRLDLWGQGTLVTVSLGQPKAPSVFPLAPCCGDTPSSTVTLGCLVKGYLPEPVTVTWNSGTLTNGVRTFPSVRQSSGLYSLSSVVSVTSSSQPVTCNVAHPATNTKVDKTVAPSTCSKPMCPPPELPGGPSVFIFPPKPKDTLMISRTPEVTCVVVDVSQDDPEVQFTWYINNEQVRTARPPLREQQFNSTIRVVSTLPIAHQDWLRGKEFKCKVHNKALPAPIEKTISKARGQPLEPKVYTMGPPREELSSRSVSLTCMINGFYPSDISVEWEKNGKAEDNYKTTPTVLDSDGSYFLYSKLSVPTSEWQRGDVFTCSVMHEALHNHYTQKSISRSPGK light: MDTSTSTALLGLLLLWLTGARCAIEMTQSPPSLSASVGETVRIRCLASEDIYSGISWYQQKPEKPPTLLISGASNLESGVPPRFSGGGSGTDYTLTIGGVQAEDVATYYCLGGYSFSSTGLTFGAGTKVEIKRDPVAPSVLLFPPSKEELTTGTATIVCVANKYFPDVTVTWEVDGTTQTTGIENSKTPQNSADCTYNLSSTLTLTSTQYNSHKEYTCKVTQGTTSVVQSFNRGDC | No | No | Yes | Yes | No | Yes
7 | 6F9: rabbit anti-α11β1 mAb; heavy chain SEQ ID NO: 183, light chain SEQ ID NO: 184 (antibody) heavy: METGLRWLLLVAVLKGVQCQSLEESGGDLVKPGASLTLTCTASGSSFSSTYWNCWVRQAPGKGLEWIACINAGSGTTYYASWAKGRFTVSKTSSTTVTLQMTSLTAADTATYFCTRDSDGRFSSGYYFNLWGPGTLVTVSSGQPKAPSVFPLAPCCGDTPSSTVTLGCLVKGYLPEPVTVTWNSGTLTNGVRTFPSVRQSSGLYSLSSVVSVTSSSQPVTCNVAHPATNTKVDKTVAPSTCSKPMCPPPELPGGPSVFIFPPKPKDTLMISRTPEVTCVVVDVSQDDPEVQFTWYINNEQVRTARPPLREQQFNSTIRVVSTLPIAHQDWLRGKEFKCKVHNKALPAPIEKTISKARGQPLEPKVYTMGPPREELSSRSVSLTCMINGFYPSDISVEWEKNGKAEDNYKTTPTVLDSDGSYFLYSKLSVPTSEWQRGDVFTCSVMHEALHNHYTQKSISRSPGK light: MDTRAPTQLLGLLLLWLPGATFAQVLTQTASPVSAAVGGTVTINCQSSQSVYDNNWLAWYQQKPGQPPKLLIDDASKLTSGVSSRFKGSGSGTQFTLTISGVQCDDAATYYCQGAYYSSGWYWAFGGGTEVVVKGDPVAPTVLIFPPAADQVATGTVTIVCVANKYFPDVTVTWEVDGTTQTTGIENSKTPQNSADCTYNLSSTLTLTSTQYNSHKEYTCKVTQGTTSVVQSFNRGDC | No | No | Yes | Yes | No | Yes
